Sequences and labels used below:
B1: MMP1 (parent)
chain: FVRGDHRDNSPFDGPGGNLAHAFQ
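Note: lentivirally expressed fusions sorted by FACS into six bins by GFP to DsRed ratio, PSI derived from sequencing read proportions per bin multiplied by bin number.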

In this series the parent is B1. The series can be described thus: protein stability index of a GFP-peptide fusion (GPS, HEK-293T) (PSI 1-6); higher = more stable. The note with it: c terminus: a fixed tail appended.
As for SVRGDHRDNSPFDGPGGNLAHAFQ [F1S], the protein stability index came to 3.33.

Regarding IVRGDHRDNSPFDGPGGNLAHAFQ [F1I], the protein stability index was 2.82. Under HVRGDHRDNSPFDGPGGNLAHAFQ [F1H] stands 3.28. With EVRGDHRDNSPFDGPGGNLAHAFQ [F1E], the protein stability index stood at 3.97. Take WVRGDHRDNSPFDGPGGNLAHAFQ [F1W]: the protein stability index was determined as 2.48. The same measure for PVRGDHRDNSPFDGPGGNLAHAFQ [F1P]: 3.59. The same measure for QVRGDHRDNSPFDGPGGNLAHAFQ [F1Q]: 4.01. Under NVRGDHRDNSPFDGPGGNLAHAFQ [F1N] stands 3.66; under YVRGDHRDNSPFDGPGGNLAHAFQ [F1Y], 1.81; under DVRGDHRDNSPFDGPGGNLAHAFQ [F1D], 4.41. TVRGDHRDNSPFDGPGGNLAHAFQ [F1T]: the protein stability index turned out to be 3.78. As to LVRGDHRDNSPFDGPGGNLAHAFQ [F1L], the protein stability index is 3.52. Under CVRGDHRDNSPFDGPGGNLAHAFQ [F1C] stands 2.64; under AVRGDHRDNSPFDGPGGNLAHAFQ [F1A], 3.67.

As for KVRGDHRDNSPFDGPGGNLAHAFQ [F1K], the protein stability index is 3.56. The same measure for MVRGDHRDNSPFDGPGGNLAHAFQ [F1M]: 3.32. Under GVRGDHRDNSPFDGPGGNLAHAFQ [F1G] stands 3.33.

Consider VVRGDHRDNSPFDGPGGNLAHAFQ [F1V], for which the protein stability index was determined as 2.83. RVRGDHRDNSPFDGPGGNLAHAFQ [F1R]: the protein stability index was found to be 3.36. Under FVRGDPRDNSPFDGPGGNLAHAFQ [H6P] stands 1.48; under FVRGDLRDNSPFDGPGGNLAHAFQ [H6L], 2.64; under FVRGDRRDNSPFDGPGGNLAHAFQ [H6R], 1.99. For FVRGDERDNSPFDGPGGNLAHAFQ [H6E], the protein stability index was found to be 1.76. Regarding FVRGDVRDNSPFDGPGGNLAHAFQ [H6V], the protein stability index was determined as 2.48.

For the variant FVRGDSRDNSPFDGPGGNLAHAFQ [H6S], the protein stability index is 1.85.

Regarding FVRGDDRDNSPFDGPGGNLAHAFQ [H6D], the protein stability index is 2.5.

FVRGDTRDNSPFDGPGGNLAHAFQ [H6T]: the protein stability index is 1.58. In the case of FVRGDGRDNSPFDGPGGNLAHAFQ [H6G], the protein stability index came to 2.26. The same measure for FVRGDKRDNSPFDGPGGNLAHAFQ [H6K]: 2.57; for FVRGDIRDNSPFDGPGGNLAHAFQ [H6I]: 1.55; for FVRGDMRDNSPFDGPGGNLAHAFQ [H6M]: 2.16.

Take FVRGDARDNSPFDGPGGNLAHAFQ [H6A]: the protein stability index was 2.42. The same measure for FVRGDNRDNSPFDGPGGNLAHAFQ [H6N]: 1.33; for FVRGDQRDNSPFDGPGGNLAHAFQ [H6Q]: 1.42; for FVRGDCRDNSPFDGPGGNLAHAFQ [H6C]: 2.02. Under FVRGDFRDNSPFDGPGGNLAHAFQ [H6F] stands 3.13; under FKRGDHRDNSPFDGPGGNLAHAFQ [V2K], 3.1. On to FRRGDHRDNSPFDGPGGNLAHAFQ [V2R], for which the protein stability index is 3.48. Consider FLRGDHRDNSPFDGPGGNLAHAFQ [V2L], for which the protein stability index turned out to be 3.03. Under FNRGDHRDNSPFDGPGGNLAHAFQ [V2N] stands 3.53; under FFRGDHRDNSPFDGPGGNLAHAFQ [V2F], 2.61; under FWRGDHRDNSPFDGPGGNLAHAFQ [V2W], 2.25.

For FYRGDHRDNSPFDGPGGNLAHAFQ [V2Y], the protein stability index was 3.15. In the case of FMRGDHRDNSPFDGPGGNLAHAFQ [V2M], the protein stability index worked out at 3.03. FARGDHRDNSPFDGPGGNLAHAFQ [V2A]: the protein stability index turned out to be 1.66. Regarding FTRGDHRDNSPFDGPGGNLAHAFQ [V2T], the protein stability index was found to be 3.07. Under FSRGDHRDNSPFDGPGGNLAHAFQ [V2S] stands 2.76. The same measure for FHRGDHRDNSPFDGPGGNLAHAFQ [V2H]: 2.37; for FQRGDHRDNSPFDGPGGNLAHAFQ [V2Q]: 2.75; for FDRGDHRDNSPFDGPGGNLAHAFQ [V2D]: 3.58. The same measure for FERGDHRDNSPFDGPGGNLAHAFQ [V2E]: 3.97. FGRGDHRDNSPFDGPGGNLAHAFQ [V2G]: the protein stability index was 3.03. The same measure for FIRGDHRDNSPFDGPGGNLAHAFQ [V2I]: 1.92; for FPRGDHRDNSPFDGPGGNLAHAFQ [V2P]: 2.85. As to FCRGDHRDNSPFDGPGGNLAHAFQ [V2C], the protein stability index was 1.63. Take FVRGDHRDNVPFDGPGGNLAHAFQ [S10V]: the protein stability index amounted to 1.42. Under FVRGDHRDNYPFDGPGGNLAHAFQ [S10Y] stands 1.71; under FVRGDHRDNCPFDGPGGNLAHAFQ [S10C], 1.83. Under FVRGDHRDNFPFDGPGGNLAHAFQ [S10F] stands 2.42.

FVRGDHRDNKPFDGPGGNLAHAFQ [S10K]: the protein stability index stood at 2.63. As to FVRGDHRDNLPFDGPGGNLAHAFQ [S10L], the protein stability index is 1.83. For the variant FVRGDHRDNPPFDGPGGNLAHAFQ [S10P], the protein stability index was 2.84. Take FVRGDHRDNIPFDGPGGNLAHAFQ [S10I]: the protein stability index came to 1.71.

For the variant FVRGDHRDNNPFDGPGGNLAHAFQ [S10N], the protein stability index came out at 1.38.

As for FVRGDHRDNMPFDGPGGNLAHAFQ [S10M], the protein stability index is 2.11. FVRGDHRDNGPFDGPGGNLAHAFQ [S10G]: the protein stability index was found to be 1.3.

As to FVRGDHRDNHPFDGPGGNLAHAFQ [S10H], the protein stability index stood at 1.51. In the case of FVRGDHRDNQPFDGPGGNLAHAFQ [S10Q], the protein stability index was found to be 1.6. The same measure for FVRGDHRDNTPFDGPGGNLAHAFQ [S10T]: 2.13. Under FVRGDHRDNRPFDGPGGNLAHAFQ [S10R] stands 2.03. The same measure for FVRGDHRDNDPFDGPGGNLAHAFQ [S10D]: 1.35; for FVRGDHRDNAPFDGPGGNLAHAFQ [S10A]: 2.32. Regarding FVRGDHRDNEPFDGPGGNLAHAFQ [S10E], the protein stability index came out at 1.53.

FVRPDHRDNSPFDGPGGNLAHAFQ [G4P]: the protein stability index stood at 1.73. Regarding FVRVDHRDNSPFDGPGGNLAHAFQ [G4V], the protein stability index turned out to be 1.94. Turning to FVRQDHRDNSPFDGPGGNLAHAFQ [G4Q], the protein stability index is 2.42.

Consider FVRADHRDNSPFDGPGGNLAHAFQ [G4A], for which the protein stability index stood at 2.

Turning to FVRHDHRDNSPFDGPGGNLAHAFQ [G4H], the protein stability index was 2.26.

For FVRLDHRDNSPFDGPGGNLAHAFQ [G4L], the protein stability index was found to be 1.68. Under FVRDDHRDNSPFDGPGGNLAHAFQ [G4D] stands 3.02; under FVRFDHRDNSPFDGPGGNLAHAFQ [G4F], 2.06. Turning to FVRNDHRDNSPFDGPGGNLAHAFQ [G4N], the protein stability index was 2.04. As to FVRCDHRDNSPFDGPGGNLAHAFQ [G4C], the protein stability index stood at 2.67. The same measure for FVRWDHRDNSPFDGPGGNLAHAFQ [G4W]: 1.94. Take FVRKDHRDNSPFDGPGGNLAHAFQ [G4K]: the protein stability index came out at 1.57. With FVRSDHRDNSPFDGPGGNLAHAFQ [G4S], the protein stability index worked out at 2.41. Consider FVREDHRDNSPFDGPGGNLAHAFQ [G4E], for which the protein stability index is 1.76.

With FVRIDHRDNSPFDGPGGNLAHAFQ [G4I], the protein stability index was determined as 1.64.

As for FVRYDHRDNSPFDGPGGNLAHAFQ [G4Y], the protein stability index was determined as 2.09. Under FVRRDHRDNSPFDGPGGNLAHAFQ [G4R] stands 1.56; under FVRTDHRDNSPFDGPGGNLAHAFQ [G4T], 2.52. Under FVRGDHRHNSPFDGPGGNLAHAFQ [D8H] stands 2.29. Under FVRGDHRYNSPFDGPGGNLAHAFQ [D8Y] stands 3.24; under FVRGDHRRNSPFDGPGGNLAHAFQ [D8R], 1.62.

For the origin of these results see the supplement of paper PMC10567573.
